Test results from patent EP1557432B1.

Target: TBP-hCGβ(20-190)
Assay: sandwich immunoassay for the hCG heterodimer (anti-hCG β capture, anti-TSH α detection), COS-7 cotransfection of α and β fusions

Concentration (ng/ml) of heterodimer in hCG heterodimer assay: 38 ng/mL
Substance: TBP-hCGα(20-190)
